This is an account of results in paper PMC12157903.

One test deals with Recombinant protein G. Description: optical weak value amplification (WVA) sensor; recombinant protein G (50 µg/mL, 30 min) immobilised on polydopamine on the prism, surface blocked; 10 µg/mL antibody (mouse IgG) injected at 30 µL/min for 120 min; PBS, 25 °C; reference channel with PBS subtracted; curves fitted with the intraparticle diffusion model.
Test [1] deals with Mouse Immunoglobulin G (mouse). Description: optical weak value amplification (WVA) sensor; oriented strategy: mouse IgG captured on immobilised protein G; 30 µg/mL protein L injected until the signal was saturated (120 min); 25 °C.

Mouse Immunoglobulin G (antibody): in the test with Recombinant protein G, the Kid,1 (intraparticle diffusion rate constant, surface diffusion stage) came to 454 a.u.min^−1/2; the Kid,2 (intraparticle diffusion rate constant, intraparticle diffusion stage) came out at 239 a.u.min^−1/2; the Kid,3 (intraparticle diffusion rate constant, intraparticle diffusion stage) amounted to 83.9 a.u.min^−1/2; the fold antibody immobilised, against random immobilisation on polydopamine is 2.27 fold.
Consider Recombinant protein L, for which the fold binding sites, against randomly immobilised IgG in test [1] amounted to 1.59 times.
